Consider 13 molecules from patent US20140287419A1, “Compositions Having Dicamba Decarboxylase Activity and Methods of Use” (priority 2013, published 2014).

Sequences and labels used below:
B1: SEQ ID NO:46: decarboxylase, Rhodococcus opacus B4 (protein, listed as Rhodococcus opacus)
chain: MARIITLEEHYLDPAIAAASAPLARELSPDFAAAYDPASGLSYTPSAQVLQDLGQRRIADMDTHGISMQVLSCLTTQQVPADVAPDLVRAANDTAAAAVRAHPDRFAAFAALPTTAPDAAATELARCIDDLGFVGTMINGRTDGEFLDAPRFDPILATAAARNVPIYLHPAVPPRATSDSNYAGLAPLVTARLQTSAWGWHQETAVHFLHLVLSGVLDRYPNLQFILGHWGEMIPFYLDRLDEALPQAVTNLDRTISDYVRENVYITPSGMFNQAQLQYCVETLGVDRILYSVDYPFIGNDGAVSFLDEANLPDEAKHQIAHQNTEKLLGL
B2: SEQ ID NO:57: amidohydrolase, Collimonas fungivorans Ter331 (protein)
chain: MAKLICVEEHVLDPAVGAATQSLVRAEAPYLPDWGSRVLDGRHVADRSRPHVIAPSESARKALEMGEPRLADMDAASIDMQVLSYGGFPQLLPAAQAIDLNRAANDKLALAAQAHPARFAGFATLPWQAPEAAARELERAVKQLGLKGALINGRPGDTFLDDARYAPILAAFDELKVPLYVHPGLPLPAVQAPYYGGFERELSARLAMFAWGWHNEAGIQVVRMLLAGVFDRHPRLQLISGHWGEMVPFFLQRLEDSIPQEASGLQRPIVQTYREHVYISPSGMFTLPHFQFIHALMGAQRILYSIDYPYQSLDGARAFIERLPISDTDKALIAHRNAERLLHL
modifications: Collimonas fungivorans
B3: SEQ ID NO:53: amidohydrolase, Granulicella tundricola MP5ACTX9 (protein, listed as Granulicella tundricola)
chain: MARTITLEEHFVTDSFLRATGAYDKPAPPWLAQLQPKLLDLGDGRIAAMDEAGIDLQVLSLAALGFDALDAATATPLVHDINDELAAAVRANPTRLAAFASLALKDPQSAARELERAIQKLGFRGVLLDGTTDGLFLDDPRFTPVFEAAVALNVPIYLHPAPPPESVFDTYFTGLPEGVGQMLSIAGWGWHAETALHTLRLITNGVFDRYPTLQLIIGHMGEMLPMALARTSKALSHAARLRQPVAAYFQSNIHLTTSGYFTQPPLRCALDVVGIDRLMFSIDYPFSANTLGRDYLTELEQTLTPEDLAKLIHRNAESLLNLS
B4: SEQ ID NO:49: amidohydrolase 2, Streptomyces sp. SPB78 (protein, listed as Streptomyces sp.)
chain: MAKIIALEEHFSDPAVAKAGAARARALSPGFAASYSPASGLPYSPSPEVLENLAEKRLADMDAGGITMQVLSGLGAQTVPADVAPALVAGSNDKAAAAVRAHPDRFAAFAALPTATPEAAVAELDRSVNELGFVGTLIMGRTEGEFLDAPRFEPILARAAALKVPVFLHPGVPPREITDSNYAAGLPTGIGTRLQTAAWGWHQETAVHFLHLVHSGVLDRYPDLQFILGHWGEMIPFYLDRVDEALPQRATGLDRSFHEYFRENVYLAPSGMWSQAQLRFCLETVPLERIVFAVDYPFIGNEGAVPFLEKAELPQADKRKIAHENAERLLGL
B5: SEQ ID NO:52: putative decarboxylase, Streptomyces sp. SA3_actG (protein, listed as Streptomyces sp.)
chain: MAKIIALEEHFSDPAVAKAGAARAQALSPGFAASYSPASGLPYSPSPEVLENLAEKRLADMDAGGITMQVLSGLSAQTVPADVAPALVAGSNDKAAAAVRAHPDRFAAFAALPTAAPEAAVAELDRSVNELGFVGTLIMGRTEGEFLDAPRFEPILARAAALKVPVFLHPGVPPREITDSNYAAGLPTGIGTRLQTAAWGWHQETAVHFLHLVHSGVLDRYPDLQFILGHWGETIPFYLDRVDEALPQRATGLDRSFHEYFRENVYLAPSGMWSQAQLRFCLETFPLERIVFAVDYPFIGNEGAVPFLEKAELPEADKRKIAHENAERLLGL
B6: SEQ ID NO:54: putative decarboxylase, Streptomyces sp. Tu6071 (protein, listed as Streptomyces sp.)
chain: MAKIIALEEHFSDPAVAKAGAARAQALSPGFAASYSPASGLPYSPSPEVLENLAEKRLADMDAGGITMQVLSGLGAQTVPADVAPALVAGSNDKAAAAVRAHPDRFAAFAALPTAAPEAAVAELDRSINELGFVGTLIMGRTEGEFLDAPRFEPILARAAALKVPVFLHPGVPPREITDSNYAAGLPTGIGTRLQTAAWGWHQETAVHFLHLVHSGVLDRYPGLQFILGHWGEMIPFYLDRVDEALPQRATGLDRSFHEYFRENVYLAPSGMWSQAQLRFCLETVPLERIVFAVDYPFIGNEGAVPFLEKAELPEADKRKIAHENAERLLGL
B7: SEQ ID NO:51: TIM-barrel fold metal-dependent hydrolase, Mycobacterium gilvum Spyr1 (protein, listed as Mycobacterium gilvum)
chain: MARVIAIEEHYAHPGLQPAEALANLRKHPQLARIQDKLEDLGAGRLADMDAAGIDMQVLSHTVPGAEALPAAQAVDVVRQTNDDLAEVIAAHPDRFAGFAALPMRDPQAAATELQRAVGTLGFCGAMINGLIEGRFLDHPDFTPLLSTAADLGVPLYLHPSFPPPQVAQIYFGGLPPVLADLLATAGWGWHAETALHVLRLISTGVFDRLPELRVIVGHMGEMIPFALARIDTVLSPMTELRQPVAQYFQTNVWFTTSGYTTFPPLQCALSTVGIDRLIFSVDYPYTDNASARALLDTAPISPVDREKLAHATVEALLRV
B8: SEQ ID NO:48: amidohydrolase, Amycolatopsis mediterranei U32 (protein, listed as Amycolatopsis mediterranei)
chain: MASMKLYGLEEHFVTADVIEAWRRRDPGLAEPMMKWAVASDITPALLDVDGGRIAAMDDAGIDTTVLSLTTPGLQNLDAAEAVALQAPTNDLIAAAVRRHPGRFQGFATLATSAPAAAADELRRAVTELGLNGALVNANSRGRALDAPGFWDIYEAAEDLRAPVYLHPGVPVPAVTEAYYRGFGEPVNSMLATGAFGWHYDAGLTILRMIVAGVFDRFPGLQVILGHWGEVVLFYLDRVAAMDKLTALRRPIAEYFRSNIFITPGGISSHKYLRWSLETVGVERIMYASDYPFNTERAGSARRFLDTAPVDEAGRERIAYRNWEELIAGIRR
B9: SEQ ID NO:47: hypothetical protein SOD_m00560, Serratia odorifera 4Rx13 (protein, listed as Serratia odorifera)
chain: MAKIICLEEHTLDKALVMASMPAALAQAPFLSDWGKTITDGNLPDRSRPQIEKNDLINVKGADIGRGRLDDMDEAGITMQVLSVGGFPHLISAAEGVDLNRAANDRLANAVNAHPDRFAAFATLPWAQPDAAEKELERAVKELGFKGALLNGRPSIHFLDHPDYDGLLARFNALGVPLYLHPGLPVRSVQQAYYSGFSDEVTARLSMFGWGWHHEAGIHLLRLILSGAFDKYPNLQVISGHWGEMLPFWLQRLDDSLPQAATGLRRTITQTFREQVYVTPSGMLTLPHFQFIYALLGAERILFSVDYPYQTLDGVKAFIQSLPVPEEAKEAIAFRNAERLFGLTS
B10: SEQ ID NO:2: o-pyrocatechuate decarboxylase, Serratia sp. AS12 (protein, listed as Serratia sp.)
chain: MAKIICLEEHTLDKALVMASMPAALEQAPFLSDWGKTVTDGNLPDRSRPQIEKNDLINIKGADIGRGRLDDMDVAGITMQVLSVGGFPHLISAAEGVDLNRAANDRLADAVNAHPDRFAAFATLPWAQPDSAEKELERAVKELGFKGALLNGRPSTHFLDHPDYDGLLARFNALGVPLYLHPGLPVRSVQQAYYGGFSDEVTARLSMFGWGWHHEAGIHLLRLILSGAFDKYPNLQVISGHWGEMLPFWLQRLDDSLPQAATGLRRTIAQTFKEQVYVTPSGMLTLPHFQFIYALLGAERIIFSVDYPYQTLDGVKAFIQSLPVPEEAKEAIAFRNAERLLGLTS
B11: SEQ ID NO:55: o-pyrocatechuate decarboxylase, Serratia sp. AS12 (protein, listed as Serratia sp.)
chain: MAKIICLEEHTLDKALVMASMPAALEQAPFLSDWGKTVTDGNLPDRSRPQIEKNDLINIKGADIGRGRLDDMDVAGITMQVLSVGGFPHLISAAEGVDLNRAANDRLADAVNAHPDRFAAFATLPWAQPDSAEKELERAVKELGFKGALLNGRPSTHFLDHPDYDGLLARFNALGVPLYLHPGLPVRSVQQAYYGGFSDEVTARLSMFGWGWHHEAGIHLLRLILSGAFDKYPNLQVISGHWGEMLPFWLQRLDDSLPQAATGLRRTIAQTFKEQVYVTPSGMLTLPHFQFIYALLGAERIIFSVDYPYQTLDGVKAFIQSLPVPEEAKEAIAFRNAERLLGLTS
B12: SEQ ID NO:50: hypothetical protein SSMG_03140, Streptomyces sp. AA4 (protein, listed as Streptomyces sp.)
chain: MARIVTLEEHWTDPAVTAAGMPNLLDHVPGYAAAFDPDTGMPYPRHPELLEDLGAARIADMDRHGITTQVLSLVNTFLPADVAPRLTAAANDAMAAAVEAFPGRFAAFATLPTAVPGAAADELRRCVGELGFVGTMIMGRTDGEFLDQPRFDPILRAASDLSVPVYLHPAPPPVAVSEASYAGGLSPAVSAAFRLAAWGWHQETAVHLLHLVLAGVLDRYPGLQFVLGHWGEFIPFYLDRLDESMPRRMTGLDRTFREYFRDNVFITPSGMFSQAQLRYCADTVGTDRIIHSVDFPMLGNEGAVSFLTDSHLSREDQEKIAHGNADALLGLG
B13: SEQ ID NO:56: hypothetical protein EAE_19025, Enterobacter aerogenes KCTC 2190 (protein)
chain: MAKIICLEEHYLDSELGRACMPVALEQAPFLGDWGKTVADGHNPDRSRPQIEKNALINAKGADLGSRRLRDMDEAGITLQILSVGGFPQLAPEDEAVTLNTAANDRLAEAVRNHPDRFAAFATLPWAQPKDAENELVRAVEKLGFKGALLNGRPSSCFLDHPDYDSLLSRFNKLNVPLYLHPGLPLKSVQQAYFTGFSAEVNARLSMFGWGWHHEAGIHLLRLMLSGAFDKYPNMQVISGHWGEMLPFWLQRLDDSLPLAATGLSRTLTRTFQEHVYVTPSGMLTLPHFKFIYELMGAERILFSVDYPYQTLDGVKTFIDSLPVNKAEKEAIAFRNAERLLGITA
modifications: Enterobacter aerogenes

The assay is described as follows: 14C assay with IPTG-induced recombinant E. coli cells (14CO2 capture from [14C]-carboxyl-labeled dicamba). The note with it: E. coli cell assay, 108 sequences tested.
For B1, the “decarboxylation activity of dicamba” value is listed as “showed decarboxylation activity of dicamba”.

Take B2: the “decarboxylation activity of dicamba” value is “showed decarboxylation activity of dicamba”.

With B3, the “decarboxylation activity of dicamba” value is listed as “showed decarboxylation activity of dicamba”.

Consider B4, for which the “decarboxylation activity of dicamba” value is on record as “showed decarboxylation activity of dicamba”.

Take B5: the “decarboxylation activity of dicamba” value is on record as “showed decarboxylation activity of dicamba”.

For the molecule B6, the “decarboxylation activity of dicamba” value is “showed decarboxylation activity of dicamba”.

As to B7, the “decarboxylation activity of dicamba” value is listed as “showed decarboxylation activity of dicamba”.

With B8, the “decarboxylation activity of dicamba” value is “showed decarboxylation activity of dicamba”.

Regarding B9, the “decarboxylation activity of dicamba” value is “showed decarboxylation activity of dicamba”.

Regarding B10, the “decarboxylation activity of dicamba” value was “showed decarboxylation activity of dicamba”.

As for B11, the “decarboxylation activity of dicamba” value is reported as “showed decarboxylation activity of dicamba”.

For the molecule B12, the “decarboxylation activity of dicamba” value was “showed decarboxylation activity of dicamba”.

For the molecule B13, the “decarboxylation activity of dicamba” value is given as “showed decarboxylation activity of dicamba”.
